Results as given in patent US20220154204A1, “ENHANCING DROUGHT, SALINITY AND COLD TOLERANCE IN PLANTS AND TREES” (The Regents of the University of California, priority 2019, published 2022).
One block for each molecule: values may come before it.

Molecular target: T1, OST1/SnRK2.6 (Arabidopsis thaliana, UniProt Q940H6)
T1 construct: made in house; host or cells: E. coli
T1 sequence (Q940H6 1-362): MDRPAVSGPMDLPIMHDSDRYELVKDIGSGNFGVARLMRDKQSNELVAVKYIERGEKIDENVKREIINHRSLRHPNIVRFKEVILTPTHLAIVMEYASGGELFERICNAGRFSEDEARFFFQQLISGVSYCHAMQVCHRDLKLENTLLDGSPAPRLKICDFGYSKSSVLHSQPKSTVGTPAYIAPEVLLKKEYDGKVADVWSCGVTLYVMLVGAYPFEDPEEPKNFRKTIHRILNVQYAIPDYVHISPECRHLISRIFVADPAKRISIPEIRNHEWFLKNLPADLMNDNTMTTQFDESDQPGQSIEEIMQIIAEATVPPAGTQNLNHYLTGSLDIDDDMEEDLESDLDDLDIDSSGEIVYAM
Test: In vitro phosphorylation assay of CIAP-dephosphorylated GST-OST1/SnRK2.6 with other protein kinases
Assay type: biochemical
Details: GST-OST1/SnRK2.6 dephosphorylated by CIAP, [γ-32P]-ATP
Procedure: We investigated phosphorylation of purified recombinant GST-tagged OST1/SnRK2.6 protein kinase after dephosphorylation in vitro. To test whether OST1/SnRK2.6 could be re-activated by autophosphorylation, after dephosphorylation, the GST-OST1/SnRK2.6 protein bound on glutathione sepharose 4B resin was incubated with calf intestinal alkaline phosphatase (CIAP), and [γ-^32P]-ATP was added to the reaction after wash out of CIAP. […] Therefore, another unknown protein kinase may be required for reversible ABA signal transduction.
10 μg GST-OST1/SnRK2.6 proteins were bound to glutathione sepharose 4B beads and incubated with 30 U CIAP for 2 hr at room temperature. […]
a, Seeds of amiR-HsMYO wild-type (control line) or amiR-ax1117 mutant were sowed on ½ MS medium containing 2 μM ABA, or 0.02% EtOH as control, for germination assays. Representative images showing seed germination after 6 days. b, The percentage of seedlings showing green cotyledons was analyzed. […] In-gel kinase assays were performed using histone type III-S as a substrate. e, SnRK2 band intensities as shown in (d) were measured using ImageJ, n=3 experiments, error bars show +/−s.e.m. f, Recombinant GST-OST1/SnRK2.6 protein was dephosphorylated by alkaline phosphatase in vitro and used for in vitro phosphorylation assays after incubation with CPK6, CPK23 or MPK12 protein kinases. […]

phosphorylation of OST1/SnRK2.6 after dephosphorylation: did not phosphorylate
B1: CPKδ: calcium-dependent protein kinase of ABA signalling (protein, UniProt Q38872 2-544, looked up)
Calcium-dependent protein …: GNSCRGSFKDKIYEGNHSRPEENSKSTTTTVSSVHSPTTDQDFSKQNTNPALVIPVKEPIMRRNVDNQSYYVLGHKTPNIRDLYTLSRKLGQGQFGTTYLCTDIATGVDYACKSISKRKLISKEDVEDVRREIQIMHHLAGHKNIVTIKGAYEDPLYVHIVMELCAGGELFDRIIHRGHYSERKAAELTKIIVGVVEACHSLGVMHRDLKPENFLLVNKDDDFSLKAIDFGLSVFFKPGQIFKDVVGSPYYVAPEVLLKHYGPEADVWTAGVILYILLSGVPPFWAETQQGIFDAVLKGYIDFDTDPWPVISDSAKDLIRKMLCSSPSERLTAHEVLRHPWICENGVAPDRALDPAVLSRLKQFSAMNKLKKMALKVIAESLSEEEIAGLRAMFEAMDTDNSGAITFDELKAGLRRYGSTLKDTEIRDLMEAADVDNSGTIDYSEFIAATIHLNKLEREEHLVSAFQYFDKDGSGYITIDELQQSCIEHGMTDVFLEDIIKEVDQDNDGRIDYEEFVAMMQKGNAGVGRRTMKNSLNISMRDV

phosphorylation of OST1/SnRK2.6 after dephosphorylation: did not phosphorylate
B2: MPK12: MAP kinase of ABA signalling (protein)
chain: MSGESSSGSTEHCIKVVPTHGGRYVQYNVYGQLFEVSRKYVPPIRPIGRGACGIVCAAVNSVTGEKVAIKKIGNAFDNIIDAKRTLREIKLLRHMDHENVITIKDIVRPPQRDIFNDVYIVYELMDTDLQRILRSNQTLTSDQCRFLVYQLLRGLKYVHSANILHRDLRPSNVLLNSKNELKIGDFGLARTTSDTDFMTEYVVTRWYRAPELLLNCSEYTAAIDIWSVGCILGEIMTGQPLFPGKDYVHQLRLITELVGSPDNSSLGFLRSDNARRYVRQLPRYPKQQFAARFPKMPTTAIDLLERMLVFDPNRRISVDEALGHAYLSPHHDVAKEPVCSTPFSFDFEHPSCTEEHIKELIYKESVKFNPDH
